# Assay results: the supplement of paper PMC10567573
# B1: PKD2L1 (parent)
# chain: TLARCAKDILGFAVMFFIVFFAYA
# Variants of: B1
# Experiment: protein stability index of a GFP-peptide fusion (GPS, HEK-293T) (PSI 1-6); higher = more stable
# Settings: c terminus: a fixed tail appended
# 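Note: lentivirally expressed fusions sorted by FACS into six bins by GFP to DsRed ratio, PSI derived from sequencing read proportions per bin multiplied by bin number.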
row,Variant,protein stability index
1,TLARCAKEILGFAVMFFIVFFAYA [D8E],2.21
2,TLARCAKRILGFAVMFFIVFFAYA [D8R],2.06
3,TLARCAKCILGFAVMFFIVFFAYA [D8C],2.56
4,TLARCAKNILGFAVMFFIVFFAYA [D8N],1.91
5,TLARCAKHILGFAVMFFIVFFAYA [D8H],2.66
6,TLARCAKDILGFAVMFFIVWFAYA [F20W],1.56
7,TLARCAKDILGFAVMFFIVIFAYA [F20I],2.7
8,TLARCAKDILGFAVMFFIVKFAYA [F20K],2.48
9,TLARCAKDILGFAVMFFIVRFAYA [F20R],2.42
10,TLARCAKDILGFAVMFFIVDFAYA [F20D],1.83
11,TLARCAKDILGFAVMFFIVHFAYA [F20H],2.07
12,TLARCAKDILGFAVMFFIVTFAYA [F20T],1.92
13,TLARCAKDILGFAVMFFIVCFAYA [F20C],2.57
14,TLARCAKDILGFAHMFFIVFFAYA [V14H],2.85
15,TLARCAKDILGFARMFFIVFFAYA [V14R],2.82
16,TLARCAKDILGFAMMFFIVFFAYA [V14M],1.61
17,TLARCAKDILGFANMFFIVFFAYA [V14N],3.15
18,TLARCAKDILGFADMFFIVFFAYA [V14D],2.59
19,TLARCAKDILGFAGMFFIVFFAYA [V14G],1.9
20,TLARCAKDILGFAPMFFIVFFAYA [V14P],1.82
21,TLARCAKDYLGFAVMFFIVFFAYA [I9Y],1.94
22,TLARCAKDDLGFAVMFFIVFFAYA [I9D],1.64
23,TLARCAKDELGFAVMFFIVFFAYA [I9E],1.46
24,TLARCAKDMLGFAVMFFIVFFAYA [I9M],3.48

row,Variant,protein stability index
1,TLARCAKDCLGFAVMFFIVFFAYA [I9C],3.32
2,TLARCAKDFLGFAVMFFIVFFAYA [I9F],3.86
3,TLARCAKDVLGFAVMFFIVFFAYA [I9V],2.24
4,TLARCAKDRLGFAVMFFIVFFAYA [I9R],1.74
5,TLARCAKDLLGFAVMFFIVFFAYA [I9L],1.58
6,TLAWCAKDILGFAVMFFIVFFAYA [R4W],3.31
7,TLAKCAKDILGFAVMFFIVFFAYA [R4K],2.6
8,TLAGCAKDILGFAVMFFIVFFAYA [R4G],3.84
9,TLAQCAKDILGFAVMFFIVFFAYA [R4Q],2.37
10,TLAACAKDILGFAVMFFIVFFAYA [R4A],2.72
11,TLACCAKDILGFAVMFFIVFFAYA [R4C],2.28
12,TLARCAKDILGFAVMFFIVFQAYA [F21Q],1.38
13,TLARCAKDILGFAVMFFIVFIAYA [F21I],3.32
14,TLARCAKDILGFAVMFFIVFLAYA [F21L],1.94
15,TLARCAKDILGFAVMFFIVFWAYA [F21W],2.46
16,TLARCAKDILGFAVMFFIVFDAYA [F21D],3.21
17,TLARCAKDILGFAVMFFIVFRAYA [F21R],2.16
18,TLARCAKDILGFAVMFFIVFFRYA [A22R],1.95
19,TLARCAKDILGFAVMFFIVFFNYA [A22N],2.92
20,TLARCAKDILGFAVMFFIVFFKYA [A22K],1.67
21,TLARCAKDILGFAVMFFIVFFIYA [A22I],1.91
22,TLARCAKDILGFAVMFFIVFFGYA [A22G],4.34
23,TLARCAKDILGFAVMFFIVFFLYA [A22L],2.14
24,TLARCAKDILGFAVMFFIVFFMYA [A22M],1.48

row,Variant,protein stability index
1,TLARCAKDILGFAVMFFIVFFFYA [A22F],1.98
2,TLARCAKDILGFAVMFFIVFFYYA [A22Y],2.58
3,TLARCAKDILGFAVMFFIVFFVYA [A22V],1.42
4,TLARCAKDILGFAVMFFIVFFHYA [A22H],2.35
5,TLARCADDILGFAVMFFIVFFAYA [K7D],3.17
6,TLARCAYDILGFAVMFFIVFFAYA [K7Y],3.79
7,TLARCAFDILGFAVMFFIVFFAYA [K7F],2.78
8,TLARCAEDILGFAVMFFIVFFAYA [K7E],2.36
9,TLARCAPDILGFAVMFFIVFFAYA [K7P],2.84
10,TLARCAMDILGFAVMFFIVFFAYA [K7M],2.47
11,TLARCATDILGFAVMFFIVFFAYA [K7T],2.83
12,TLARCAQDILGFAVMFFIVFFAYA [K7Q],3.71
13,TLARCAGDILGFAVMFFIVFFAYA [K7G],2.45
14,TLARCMKDILGFAVMFFIVFFAYA [A6M],2.09
15,TLARCIKDILGFAVMFFIVFFAYA [A6I],2.69
16,TLKRCAKDILGFAVMFFIVFFAYA [A3K],2.74
17,TLCRCAKDILGFAVMFFIVFFAYA [A3C],2.83
18,TLGRCAKDILGFAVMFFIVFFAYA [A3G],1.71
19,TLLRCAKDILGFAVMFFIVFFAYA [A3L],1.75
20,TLIRCAKDILGFAVMFFIVFFAYA [A3I],4.3
21,TLYRCAKDILGFAVMFFIVFFAYA [A3Y],4.87
22,TLPRCAKDILGFAVMFFIVFFAYA [A3P],2.64
23,TLWRCAKDILGFAVMFFIVFFAYA [A3W],1.87
24,TLHRCAKDILGFAVMFFIVFFAYA [A3H],2.4

row,Variant,protein stability index
1,TLARCAKDILGFAVMFFIVFFAYK [A24K],2.06
2,TLARCAKDILGFAVMFFIVFFAYM [A24M],1.92
3,TLARCAKDILGFAVMFFIVFFAYF [A24F],2.65
4,TLARCAKDILGFAVMFFIVFFAYW [A24W],3.47
5,TLARCAKDILGFAVMFFIVFFAYI [A24I],1.68
6,TLARCAKDILGFAVMFFIVFFAYN [A24N],2.33
7,TLARCAKDILGFAVMFFAVFFAYA [I18A],2.54
8,TLARCAKDILGFAVMFFWVFFAYA [I18W],3.5
9,TLARCAKDILGFAVMFFKVFFAYA [I18K],1.71
10,TLARCAKDILGFAVMFFPVFFAYA [I18P],2.18
11,TLARCAKDILGFAVMFFNVFFAYA [I18N],1.6
12,TLARCAKDILGFAVMFFTVFFAYA [I18T],1.74
13,TLARCAKDILGFAVMFFSVFFAYA [I18S],1.72
14,TLARCAKDILGFAVMFFCVFFAYA [I18C],2.29
15,TLARCAKDIHGFAVMFFIVFFAYA [L10H],1.83
16,TLARCAKDIPGFAVMFFIVFFAYA [L10P],3.1
17,TLARCAKDIQGFAVMFFIVFFAYA [L10Q],3.08
18,TLARCAKDIRGFAVMFFIVFFAYA [L10R],2.54
19,TLARCAKDIMGFAVMFFIVFFAYA [L10M],2.61
20,TLARCAKDITGFAVMFFIVFFAYA [L10T],3.28
21,TLARCAKDISGFAVMFFIVFFAYA [L10S],1.84
22,TLARCAKDICGFAVMFFIVFFAYA [L10C],2.79
